Target: Claudin 18.2 (UniProt P56856)
Test: flow cytometry (FACS), cells not given

- EC50: 0.166 µg/mL
B1: RGCLN18.2 antibody (antibody, human IgG1, kappa, V domains shown)
VH: QVQLVQSGAEVKKPGASVKVSCKASGYAFTNYLIEWVRQAPGQGLEWMGLINPGSGGTNYNEKFKGRVTMTRDTSTSTVYMELSSLRSEDTAVYYCARGGYYGNSFAYWGQGTLVTVSS
VL: DIVMTQSPLSLPVTPGEPASISCKSSQSLLNSGNQKNYLTWYLQKPGQSPQLLIYWASTRESGVPDRFSGSGSGTDFTLKISRVEAEDVGVYYCQNAYYYPYTFGGGTKVEIKR
